In publication PMC7954794, “Protein context shapes the specificity of SH3 domain-mediated interactions in vivo” (Nature Communications, 2021):

B1: Lsb1 (protein, UniProt P53281 2-241, looked up)
LAS seventeen-binding protein …: SASLVNRSLKNIRNELEFLKESNVISGDIFELINSKLPEKWDGNQRSPQNADTEEYVEALYDFEAQQDGDLSLKTGDKIQVLEKISPDWYRGKSNNKIGIFPANYVKPAFTRSASPKSAEAASSSTVSRPSVPPPSYEPAASQYPSQQVSAPYAPPAGYMQAPPPQQQQAPLPYPPPFTNYYQQPQQQYAPPSQQAPVEAQPQQSSGASSAFKSFGSKLGNAAIFGAGSAIGSDIVNSIF
B2: Hof1 (protein, UniProt Q05080 1-669, looked up)
Cytokinesis protein 2: MSYSYEACFWDPNDNGVNILLGHISQGIRSCDSMILFFKQRSELEKDYARRLGAITGKLDKDIGTNMDYGKLNETFNVVLSVEKARAQSHSKQSEILFRQIYTDTKAFAANLQARYTTLSGKIERLRMDKFNKKKGCEVLQKKLQDAQIRFRDLQLNENNMIGAKRVEHNKRELLKWESNSQEYKVQLDVLKQEYKASQKFWIHEWAQLSCELQEMENARISFLQSKLQQFATSSMETYILEQTKMDMLTNHLNSFTAADEISTFSKENGTGRLKHKTSKGDMNSSANWAQMSSISTTSKKTESYMDNIRKLSSQLKETENKRKLASIDKYEKPLPSPEVTMATQFRNSTPVIRNETKVVANPTLSLRSSPVQLQSNVDDSVLRQKPDKPRPIVGEEQLKPDEDSKNPDEKGLMVHKRNQSLSSPSESSSSNPTDFSHIKKRQSMESMTTSVSSMANSIDDSQRFAKSWNSSNRKRKSMSHLQVPSSASSRSDDGGRTPNSAHNLNEDDYNTRRDTSTSTILFKPPVAVRGTSRGHTHRQSMIMQDSSNPIEDALYEMERIQSSSKPGTKTGNIMDERGVVRDRGITVTLPIVTSEGFPVIEYAKAMYPLIGNEAPGLANFHKGDYLLITEIVNKDWYKGEVYDNDRIDRNHRIGLIPYNFIQLLHQGL
B3: Hse1 (protein, UniProt P38753 2-452, looked up)
Class E vacuolar …: SSSAIKIRNALLKATDPKLRSDNWQYILDVCDLVKEDPEDNGQEVMSLIEKRLEQQDANVILRTLSLTVSLAENCGSRLRQEISSKNFTSLLYALIESHSVHITLKKAVTDVVKQLSDSFKDDPSLRAMGDLYDKIKRKAPYLVQPNVPEKHNMSTQADNSDDEELQKALKMSLFEYEKQKKLQEQEKESAEVLPQQQQQHQQQNQAPAHKIPAQTVVRRVRALYDLTTNEPDELSFRKGDVITVLEQVYRDWWKGALRGNMGIFPLNYVTPIVEPSKEEIEKEKNKEAIVFSQKTTIDQLHNSLNAASKTGNSNEVLQDPHIGDMYGSVTPLRPQVTRMLGKYAKEKEDMLSLRQVLANAERSYNQLMDRAANAHISPPVPGPALYAGMTHANNTPVMPPQRQSYQSNEYSPYPSNLPIQHPTNSANNTPQYGYDLGYSVVSQPPPGYEQ
B4: Lsb3 (protein)
chain: MGINNPIPRSLKSETKKAAKILASFVKPNQVFGADQVIPPDVLKRAKGLAIITILKAGFLFSGRAGSGVIVARLKDGTWSAPSAIAMAGAGAGGMVGIELTDFVFILNTQDAVKSFSEFGTITLGGNVSVSAGPLGRSAEAAASASAGGVAAVFAYSKSKGLFAGVSVEGSAIIERREANRKFYGDNCTAKMILSGRIRPPPAVDPLFRVLESRAFNYRPSNGGRGSFDDDEDDYYDDDDYYNDIPSSFSSTDASSTRPNTRSTRRRAQSGSRYTFDDDDDDDDYGTGYSRNSRLAPTNSGGSGGKLDDPSGASSYYASHRRSGTAQSRARSSRNRWADDEYDDYDDDYESGYRRGNGRDRTKDREVDDLSNRFSKSRISSASTPQTSQGRFTAPTSPSTSSPKAVALYSFAGEESGDLPFRKGDVITILKKSDSQNDWWTGRVNGREGIFPANYVELV
modifications: left off: DHFR F[3], C-terminal, kept
B5: Myo5 (protein, UniProt Q04439 1-1219, looked up)
Myosin-5: MAILKRGARKKVHQEPAKRSANIKKATFDSSKKKEVGVSDLTLLSKISDEAINENLKKRFLNATIYTYIGHVLISVNPFRDLGIYTDAVMNEYKGKNRLEVPPHVFAIAESMYYNMKSYNENQCVIISGESGAGKTEAAKRIMQYIAAASSTHTESIGKIKDMVLATNPLLESFGCAKTLRNNNSSRHGKYLEIKFNNQFEPCAGNITNYLLEKQRVVSQIKNERNFHIFYQFTKGASDAYRQTFGVQKPEQYVYTAAAGCISAETIDDLQDYQETLKAMRVIGLGQEEQDQIFRMLAAILWIGNVSFIENEEGNAQVRDTSVTDFVAYLLQIDSQLLIKSLVERIMETNHGMKRGSVYHVPLNIVQADAVRDALAKAIYNNLFDWIVSRVNKSLQAFPGAEKSIGILDIYGFEIFEHNSFEQICINYVNEKLQQIFIQLTLKSEQETYEREKIQWTPIKYFDNKVVCDLIEARRPPGIFAAMNDSVATAHADSNAADQAFAQRLNLFTTNPHFDLRSNKFVIKHYAGDVTYDIDGITDKNKDQLQKDLVELIGTTTNTFLATIFPDTVDRESKRRPPTAGDKIIKSANDLVETLSKAQPSYIRTIKPNETKSPNDYDDRQVLHQIKYLGLQENVRIRRAGFAYRQVFEKFVERFYLLSPHCSYAGDYTWQGDTLDAVKYILQDSSIPQQEYQLGVTSVFIKTPETLFALEHMRDRYWHNMAARIQRAWRRFLQRRIDAATKIQRTIRERKEGNKYEKLRDYGTKVLGGRKERRSMSLLGYRAFMGDYLSCNESKSKGAYIKRQVSIKEKVIFSIHGEALHTKFGRSAQRLKKTFLLTPTTLYIVGQTLVQNAMTYTQDYKIDVRNIQAVSLTNLQDDWVAIKLASSGQPDPLINTYFKTELITHLKRLNDKIQIKIGSAIEYQKKPGKLHSVKCQINESAPKYGDIYKSSTISVRRGNPPNSQVHKKPRKKSSISSGYHASSSQATRRPVSIAAAQHVPTAPASRHSKKPAPPPPGMQNKAATRRSVPNPASTLTASQSNARPSPPTAATRATPAATPAAAAMGSGRQANIPPPPPPPPPSSKPKEPMFEAAYDFPGSGSPSELPLKKGDVIYITREEPSGWSLGKLLDGSKEGWVPTAYMKPHSGNNNIPTPPQNRDVPKPVLNSVQHDNTSANVIPAAAQASLGDGLANALAARANKMRLESDDEEANEDEEEDDW

System: Abp1 PPIs
Experiment: DHFR-PCA of Abp1 SH3-swapped baits (Fig. 2B-D, S2C, S2F)
Assay type: cell-based, Saccharomyces cerevisiae
Conditions: number of interactions of Abp1 carrying the named SH3; sheet FigS2A-B
From the text: Having determined that multiple PPIs require SH3s, we asked whether the latter establish PPI specificity independently from their host proteins by swapping domains (Fig. 2A). Using the second round of genome editing, we individually replaced Abp1 SH3 with the 27 yeast SH3s and 3 human Abp1 orthologs’ SH3s (CTTN, HCLS1, and DBNL, Fig. 2B). The reintroduction of its own SH3 (Abp1SH3 in Abp1) reconstitutes almost perfectly Abp1’s interaction profile (Kendall’s τ = 0.93, Fig. 2B). […] No homologous SH3 domain fully re-establishes the normal Abp1 PPI profile (Fig. 2B and Supplementary Fig. 2C). However, we observe a significant correlation (cophenetic correlation = 0.20, p value = 0.005, Fig. 2C) between the similarity of PPI profiles (Fig. 2B) and the sequence similarity of the SH3s. […] Nonetheless, a subset of SH3-dependent PPIs is only observed with the endogenous domain. For instance, Hua2 and App1, both well-characterized partners of Abp1[14],[18],[19], are only detected when Abp1 contains its own SH3 (WT or swapped via editing). A given SH3 may therefore not be fully replaceable with other paralogous or orthologous domains. This pattern is confirmed by cellular growth phenotypic analyses (Supplementary Fig. 2D, E). PPIs, SH3 sequence similarity, and growth profiles under stress conditions are correlated (Supplementary Fig. 2D, E). This relationship is particularly clear when analyzing growth on media supplemented with hygromycin.
The stuffing of YSC84 SH3 rendered the strain sterile and was therefore not used for this study as the assays require crosses. For genes containing two SH3s (BZZ1 and BEM1), a combination of this first stuffer with a second one ([…]) coding for a highly similar linker ([…]) was used, which allowed targeting each SH3 position independently. The two N-terminal domains of SLA1, which are separated by six nucleotides, were stuffed by a single stuffer. Cells containing pCAS were selected via the G418 resistance cassette from the plasmid on YPD plates (YPD + NAT 100 μg/ml (DHFR F[1,2] selection) + G418 200 µg/mL (Bioshop Canada)). Colonies were randomly selected and grown in YPD media without G418 to allow plasmid loss. The correct insertion of the stuffer was validated by PCR and Sanger sequencing. The SH3-swapped, -shuffled, and -mutated strains were constructed following a second CRISPR–Cas9 editing step with the same procedures. The stuffer sequences were targeted by specific gRNAs (one gRNA per stuffer) and replaced by PCR amplified specific SH3 (with 40 bp homology arms) or libraries of mutated SH3 domains for Deep Mutational Scanning (DMS) with 78 bp flanking homology regions. Validation of the SH3 domain insertions was done as we previously described except for DMS libraries (see below).
The overall DHFR-PCA pipeline is based on Tarassov et al.[43] and the procedures have also been published as a visualized protocol. The screens were performed with robotically manipulated pin tools (BM5-SC1, S&P Robotics Inc.). First, the preys were cherry-picked from 96-well plates to omnitrays in a 384 format on YPD + HPH solid media. Plates were then combined into the 1536 format on YPD + HPH. The array was constituted of 575 preys previously shown to interact physically with at least one SH3-containing protein as reported in BioGRID V3.4.16 along with 40 negative controls. The prey array comprised a border of control strains of two rows and two columns corresponding to the PPI between LSM8-DHFR F[1,2] and CDC39-DHFR F[3]. This double border was used to remove border effects. Preys are present in duplicate at a randomized position in the 1536 array (except for YAL041W which is present four times per array). Baits were crossed with two prey plates, resulting in four independent bait–prey tests for each PPI. Baits were grown in liquid YPD + NAT and then transferred on solid YPD + NAT omnitrays. They were then replicated on YPD + NAT omnitrays in 1536 array format. […]

First: B1
Second: B2
The “Interactions in Abp1” value of the first is higher: 106 for the first, 15 for the second.

First: B3
Second: B4
The “Interactions in Abp1” value of the first is lower: 77 for the first, 107 for the second.

For B5, the “Interactions in Abp1” value was 100.

System: Abp1 (1xFLAG)
Experiment: Western blot expression level of Abp1 SH3-swapped baits (Fig. S2A-B)
Assay type: cell-based, Saccharomyces cerevisiae
Parameters: Flag (2 bands): unit not given here
Conditions: Flag signal relative to Abp1 WT (Abp1-1 to Abp1-4 = 1); sheet FigS2A-B
Description: Precultures of yeast cells expressing baits fused with the DHFR F[1,2]-FLAG were grown overnight at 30 °C with agitation in synthetic complete medium. The next day, cells were expanded in synthetic complete medium to reach their exponential phase (OD600 of around 1.0), pelleted, and frozen at −80 °C. The equivalent of fifty OD600 of cells was resuspended in ice-cold yeast lysis buffer (10 mM Tris-HCl pH 7.4, 150 mM NaCl, 0.5 mM EDTA (Millipore Sigma), 1% Triton X-100 (Millipore Sigma), and one cOmplete Mini Protease Inhibitor Cocktail (Millipore Sigma) per 10 mL) with […] glass beads (Millipore Sigma) and disrupted at 4 °C by 10 cycles of 2 min vortexing and 2 min cooldown. The equivalent of […] of lysed cells was used for the immunoprecipitation of the bait proteins using FLAG-M2 agarose beads (Millipore Sigma). The beads were incubated with the cell lysates for 120 min at 4 °C with a slow rotation, followed by three washes with the yeast lysis buffer.
Protein extracts and affinity-purified baits from yeast and human lysed cells were migrated on 10% polyacrylamide gels. The separated proteins were then transferred to nitrocellulose membranes. Validation of correct protein loading was done with ponceau staining of the membranes. Before the primary antibody incubations, membranes were blocked in 5% milk. Protein signals were detected on an Amersham Imager 600RGB (GE Healthcare) following the incubation of the membranes with the appropriate HRP-conjugated secondary antibodies and the Clarity Western ECL Substrate (Bio-Rad). The antibodies used in this study are M2-HRP (A8592, Sigma, 1/50,000), rabbit anti-FLAG (F7425, Sigma, 1/1000), PAK (SC-881, Santa Cruz, 1/200), p130cas/BCAR1 (SC-860, Santa Cruz, 1/200), actin (Cell Signaling Technology, 1/2000), anti-mouse HRP (Cell Signaling Technology, 1/10,000) and anti-rabbit HRP (Cell Signaling Technology, 1/10,000). The quantification of the WB signals was performed with the Amersham Imager 600 analysis software (GE Healthcare).

First: B1
Second: B2
The “Ratio Swap/WT Flag” value of the first is lower: 0.4741 for the first, 1.051 for the second.

First: B3
Second: B4
The “Ratio Swap/WT Flag” value of the first is lower: 0.5073 for the first, 0.537 for the second.

In the case of B5, the “Ratio Swap/WT Flag” value is reported as 0.7689.

Same assay, conditions: Western blot Flag signal (2 bands), Abp1 WT, SH3-deleted or SH3-swapped; sheet FigS2A-B

Going from B1 to B2, the “Flag (2 bands)” value rises from 50638 to 112286.

Going from B3 to B4, the “Flag (2 bands)” value rises from 54180 to 57357.

In the case of B5, the “Flag (2 bands)” value is reported as 82124.
